B1: Forkhead box protein P3 (Homo sapiens), Q9BZS1 (parent)
chain: MPNPRPGKPSAPSLALGPSPGASPSWRAAPKASDLLGARGPGGTFQGRDLRGGAHASSSSLNPMPPSQLQLPTLPLVMVAPSGARLGPLPHLQALLQDRPHFMHQLSTVDAHARTPVLQVHPLESPAMISLTPPTTATGVFSLKARPGLPPGINVASLEWVSREPALLCTFPNPSAPRKDSTLSAVPQSSYPLLANGVCKWPGCEKVFEEPEDFLKHCQADHLLDEKGRAQCLLQREMVQSLEQQLVLEKEKLSAMQAHLAGKMALTKASSVASSDKGSCCIVAAGSQGPVVPAWSGPREAPDSLFAVRRHLWGSHGNSTFPEFLHNMDYFKFHNMRPPFTYATLIRWAILEAPEKQRTLNEIYHWFTRMFAFFRNHPATWKNAIRHNLSLHKCFVRVESEKGAVWTVDELEFRKKRSQRPSRCSNPTPGP

Variants of: B1
Details: with ezh2_human EZH2, Q15910
Sequence of ezh2_human EZH2, Q15910 (Q15910 whole entry, looked up): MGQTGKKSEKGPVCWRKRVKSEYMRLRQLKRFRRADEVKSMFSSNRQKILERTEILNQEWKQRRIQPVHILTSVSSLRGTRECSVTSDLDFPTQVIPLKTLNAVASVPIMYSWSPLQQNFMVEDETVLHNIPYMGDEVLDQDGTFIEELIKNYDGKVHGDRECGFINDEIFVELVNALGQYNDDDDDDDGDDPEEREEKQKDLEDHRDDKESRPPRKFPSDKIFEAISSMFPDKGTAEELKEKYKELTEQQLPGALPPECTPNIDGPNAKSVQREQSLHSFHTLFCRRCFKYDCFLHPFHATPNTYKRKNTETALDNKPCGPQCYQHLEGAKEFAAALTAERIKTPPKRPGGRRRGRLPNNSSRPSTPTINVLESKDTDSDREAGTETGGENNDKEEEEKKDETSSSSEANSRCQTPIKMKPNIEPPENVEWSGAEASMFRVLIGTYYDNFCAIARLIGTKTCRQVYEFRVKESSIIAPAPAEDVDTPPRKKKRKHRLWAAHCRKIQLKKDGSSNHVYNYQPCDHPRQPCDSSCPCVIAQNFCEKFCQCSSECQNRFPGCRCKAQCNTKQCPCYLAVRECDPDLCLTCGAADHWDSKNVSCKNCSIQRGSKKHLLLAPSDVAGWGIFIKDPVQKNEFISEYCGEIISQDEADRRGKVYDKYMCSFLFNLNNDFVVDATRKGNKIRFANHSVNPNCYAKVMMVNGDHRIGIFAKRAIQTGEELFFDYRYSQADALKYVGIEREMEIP
With MPNPRPGKPSAPSLALGPSPGASPSWRAAPKASDLLGARGPGGTFQGRDLRGGAHASSSSLNPMPPSQLQLPTLPLVMVAPSGARLGPLPHLQALLQDRPHFMHQLSTVDAHARTPVLQVHPLESPAMISLTPPTTATGVFSLKARPGLPPGINVASLEWVSREPALLCTFPNPSAPRKDSTLSAVPQSSYPLLANGVCKWPGCEKVFEEPEDFLKHCQADHLLDEKGRAQGLLQREMVQSLEQQLVLEKEKLSAMQAHLAGKMALTKASSVASSDKGSCCIVAAGSQGPVVPAWSGPREAPDSLFAVRRHLWGSHGNSTFPEFLHNMDYFKFHNMRPPFTYATLIRWAILEAPEKQRTLNEIYHWFTRMFAFFRNHPATWKNAIRHNLSLHKCFVRVESEKGAVWTVDELEFRKKRSQRPSRCSNPTPGP [C232G] the “effect of a mutation on the interaction” value was “decreasing interaction”.
